± gives the standard error. For part of these data: This sample holds only a part of the variants without activity.
B1: glmS ribozyme (parent)
chain: AUAAAAGCGCCAGAACUACAGAAAUGUAGUUGACGAGGAGGAGGUUUAUCGAAUUUUCGGCGGAUGCCUCCAAA

What was measured:
Details in all cases: with glucosamine-6-phosphate
glucosamine-6-phosphate [1] = variants of: B1; assay: kcat; higher = faster cleavage; RNA array
Outline: (§1)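 Barcoded ribozyme variants on sequenced MiSeq chips were transcribed in situ by E. coli RNA polymerase and followed at 37 °C through a hybridised Cy3 probe. Glucosamine-6-phosphate at 40 μM to 10 mM in HEPES/KCl/Mg(OAc)2 buffer was flowed in, and tiles were imaged over ~14 h. Signals were normalised to baseline and to non-cleaving reference variants, and per-tile medians were fit to one- or two-exponential decays to give kobs. Weighted Michaelis–Menten fits across concentrations gave kcat and KM.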

glucosamine-6-phosphate [2] = variants of: B1; assay: KM; higher = weaker cofactor use; RNA array
Outline: as §1

glucosamine-6-phosphate [3] = variants of: B1; assay: self-cleavage kobs at 40 uM GlcN6P; higher = faster cleavage; RNA array
Outline: as §1

glucosamine-6-phosphate [4] = variants of: B1; assay: self-cleavage kobs at 160 uM GlcN6P; higher = faster cleavage; RNA array
Outline: as §1

glucosamine-6-phosphate [5] = variants of: B1; assay: self-cleavage kobs at 640 uM GlcN6P; higher = faster cleavage; RNA array
Outline: as §1

glucosamine-6-phosphate [6] = variants of: B1; assay: self-cleavage kobs at 2500 uM GlcN6P; higher = faster cleavage; RNA array
Outline: as §1

glucosamine-6-phosphate [7] = variants of: B1; assay: self-cleavage kobs at 10000 uM GlcN6P; higher = faster cleavage; RNA array
Outline: as §1

| Variant | kcat (glucosamine-6-phosphate [1]) | KM (glucosamine-6-phosphate [2]) | self-cleavage kobs at 40 uM GlcN6P (glucosamine-6-phosphate [3]) | self-cleavage kobs at 160 uM GlcN6P (glucosamine-6-phosphate [4]) | self-cleavage kobs at 640 uM GlcN6P (glucosamine-6-phosphate [5]) | self-cleavage kobs at 2500 uM GlcN6P (glucosamine-6-phosphate [6]) | self-cleavage kobs at 10000 uM GlcN6P (glucosamine-6-phosphate [7]) |
| --- | --- | --- | --- | --- | --- | --- | --- |
| G41U U56A | 0.00219 ± 0.00072 s⁻¹ | 4700 ± 2000 µM | 3.42e-05 ± 8.2e-06 s⁻¹ | 7.37e-05 ± 1.6e-05 s⁻¹ | 0.000234 ± 3.5e-05 s⁻¹ | 0.000769 ± 0.0001 s⁻¹ | 0.00153 ± 0.00029 s⁻¹ |
| A42G G44C U56A C70U | < 1e-05 s⁻¹ |  |  | < 1e-05 s⁻¹ |  | < 1e-05 s⁻¹ |  |
| G41U U46C | 8.91e-05 ± 1.3e-06 s⁻¹ | 676 ± 50 µM |  |  | 4.34e-05 ± 1.9e-05 s⁻¹ | 7.05e-05 ± 1.8e-05 s⁻¹ | 8.33e-05 ± 1.3e-05 s⁻¹ |
| G40A G66C | 0.000903 ± 0.00019 s⁻¹ | 2220 ± 740 µM | 3.77e-05 ± 1.3e-05 s⁻¹ | 6.89e-05 ± 1.1e-05 s⁻¹ | 0.000166 ± 3.2e-05 s⁻¹ | 0.00045 ± 8.6e-05 s⁻¹ | 0.000774 ± 9.9e-05 s⁻¹ |
| G44U U45G | 0.0224 ± 0.0018 s⁻¹ | 3420 ± 360 µM | 0.000269 ± 4.1e-05 s⁻¹ | 0.00106 ± 0.00018 s⁻¹ | 0.0033 ± 0.00046 s⁻¹ | 0.00801 ± 0.0035 s⁻¹ | 0.017 ± 0.0022 s⁻¹ |
| G41A G66C | 3.76e-05 ± 1.2e-06 s⁻¹ | 1410 ± 200 µM |  |  |  | 2.49e-05 ± 1.2e-05 s⁻¹ | 3.27e-05 ± 9.4e-06 s⁻¹ |
| G41A G66U | 8e-05 ± 4.8e-06 s⁻¹ | 2190 ± 390 µM |  |  | 2.19e-05 ± 1e-05 s⁻¹ | 4.07e-05 ± 7.8e-06 s⁻¹ | 6.65e-05 ± 8.4e-06 s⁻¹ |
| G40U C58A | 0.000609 ± 4.4e-05 s⁻¹ |  | < 1e-05 s⁻¹ | < 1e-05 s⁻¹ |  |  | 3.81e-05 ± 9.5e-06 s⁻¹ |
| A42U C68U | 0.000347 ± 1.8e-05 s⁻¹ | 1360 ± 230 µM |  |  | 0.000108 ± 2.4e-05 s⁻¹ | 0.000254 ± 5.6e-05 s⁻¹ | 0.000302 ± 3e-05 s⁻¹ |
| G41A A42G | 0.000223 ± 4.2e-05 s⁻¹ |  |  |  | 8.45e-05 ± 1.3e-05 s⁻¹ | 0.000296 ± 4.3e-05 s⁻¹ | 0.000192 ± 1.8e-05 s⁻¹ |
| G44U U65G | 0.000347 ± 2.4e-05 s⁻¹ |  |  |  |  | 5.71e-05 ± 1.8e-05 s⁻¹ | 0.000152 ± 2.6e-05 s⁻¹ |
| G40U C67U | 7.51e-05 ± 5.3e-06 s⁻¹ | 1470 ± 410 µM | < 1e-05 s⁻¹ |  | 2.67e-05 ± 8.3e-06 s⁻¹ | 4.31e-05 ± 8.2e-06 s⁻¹ | 6.64e-05 ± 6e-06 s⁻¹ |
| G40A G59U | 1.46e-05 ± 2.7e-06 s⁻¹ |  | < 1e-05 s⁻¹ | < 1e-05 s⁻¹ |  |  |  |
| G41C U56G | 0.000101 ± 5.7e-06 s⁻¹ | 2280 ± 390 µM |  |  | 2.47e-05 ± 1e-05 s⁻¹ | 4.78e-05 ± 1.5e-05 s⁻¹ | 8.29e-05 ± 1.2e-05 s⁻¹ |
| G44A U45G | 0.00378 ± 0.00039 s⁻¹ | 1850 ± 280 µM | 9.22e-05 ± 1.8e-05 s⁻¹ | 0.000285 ± 6.4e-05 s⁻¹ | 0.000889 ± 0.00016 s⁻¹ | 0.00218 ± 0.00031 s⁻¹ | 0.0033 ± 0.0007 s⁻¹ |
| G40C U47C | 0.000914 ± 0.0001 s⁻¹ | 2020 ± 360 µM |  | 7.4e-05 ± 2e-05 s⁻¹ | 0.000201 ± 4.4e-05 s⁻¹ | 0.000591 ± 0.00016 s⁻¹ | 0.000741 ± 0.00015 s⁻¹ |
| G40U U45G | 0.0012 ± 0.00018 s⁻¹ | 724 ± 190 µM | 7.67e-05 ± 2e-05 s⁻¹ | 0.000202 ± 3.6e-05 s⁻¹ | 0.000582 ± 8.9e-05 s⁻¹ | 0.000779 ± 0.00017 s⁻¹ | 0.00134 ± 0.00027 s⁻¹ |
| G43A U45G C58G | 2.82e-05 ± 8e-07 s⁻¹ | 199 ± 61 µM |  |  |  |  |  |
| G43U U56C | < 1e-05 s⁻¹ |  |  | < 1e-05 s⁻¹ |  | < 1e-05 s⁻¹ |  |
| A42U C70A | 0.00013 ± 6.8e-06 s⁻¹ | 813 ± 290 µM |  |  |  | 9.98e-05 ± 1.2e-05 s⁻¹ | 0.00012 ± 9.1e-06 s⁻¹ |
| G43U A64G | 0.000133 ± 1.2e-05 s⁻¹ | 6370 ± 1300 µM |  |  |  | 3.85e-05 ± 8.6e-06 s⁻¹ | 8.1e-05 ± 8.2e-06 s⁻¹ |
| G40C U69C | 7.37e-05 ± 2.1e-05 s⁻¹ |  |  |  |  | 5.5e-05 ± 1.1e-05 s⁻¹ | 5.63e-05 ± 1.4e-05 s⁻¹ |
| G44C A53G | 0.000232 ± 7.9e-06 s⁻¹ | 3060 ± 220 µM |  |  | 3.96e-05 ± 1.4e-05 s⁻¹ | 0.000105 ± 1.9e-05 s⁻¹ | 0.000177 ± 3e-05 s⁻¹ |
| G41C U47A | 0.000354 ± 1.6e-05 s⁻¹ | 4510 ± 420 µM |  |  | 4.21e-05 ± 1.2e-05 s⁻¹ | 0.000134 ± 2.8e-05 s⁻¹ | 0.000243 ± 2.7e-05 s⁻¹ |
| G44A A53U | 0.000232 ± 3.9e-05 s⁻¹ | 1820 ± 680 µM |  |  | 5.47e-05 ± 1.1e-05 s⁻¹ | 0.000174 ± 2.8e-05 s⁻¹ | 0.000182 ± 2.7e-05 s⁻¹ |
| G44A A53C | 0.000111 ± 2.5e-05 s⁻¹ |  |  |  | 4.9e-05 ± 2.1e-05 s⁻¹ | 5.83e-05 ± 1.3e-05 s⁻¹ | 0.0001 ± 1.9e-05 s⁻¹ |
| G41A G66U C70A | 0.000127 ± 3e-05 s⁻¹ |  |  |  | 9.26e-05 ± 3.3e-05 s⁻¹ | 6.32e-05 ± 2.8e-05 s⁻¹ | 0.000131 ± 2e-05 s⁻¹ |
| A42G U46C | 0.00159 ± 0.00025 s⁻¹ | 1020 ± 260 µM | 5.01e-05 ± 1.5e-05 s⁻¹ | 0.000237 ± 4.5e-05 s⁻¹ | 0.000597 ± 9.9e-05 s⁻¹ | 0.00137 ± 0.00023 s⁻¹ | 0.00122 ± 0.00028 s⁻¹ |
| A42G U46G | 0.017 ± 0.0083 s⁻¹ |  | 0.000254 ± 6.6e-05 s⁻¹ | 0.000694 ± 0.00017 s⁻¹ | 0.00167 ± 0.00038 s⁻¹ | 0.0074 ± 0.0015 s⁻¹ | 0.0115 ± 0.0033 s⁻¹ |
| G40C A42G | 0.00319 ± 0.00048 s⁻¹ | 1060 ± 250 µM | 0.000131 ± 2.4e-05 s⁻¹ | 0.000438 ± 0.00016 s⁻¹ | 0.000898 ± 0.00025 s⁻¹ | 0.0025 ± 0.0006 s⁻¹ | 0.00299 ± 0.00053 s⁻¹ |

Source: the supplement of paper PMC7125110
